B1: Azoarcus group I ribozyme (parent)
chain: GUGCCUUGCGCCGGGAAACCACGCAAGGGAUGGUGUCAAAUUCGGCGAAACCUAAGCGCCCGCCCGGGCGUAUGGCAACGCCGAGCCAAGCUUCGGCGCCUGCGCCGAUGAAGGUGUAGAGACUAGACGGCACCCACCUAAGGCAAACGCUAUGGUGAAGGCAUAGUCCAGGGAGUGGCGAAAGUCACACAAACCGG

Variants of: B1
Experiment: reverse-splicing fitness (ratio to wild type); higher = more active; in vitro selection; Mg2+ level not given
Procedure, shortened: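 An in vitro group I ribozyme library with randomized positions was T7-transcribed and gel-purified. In triplicate, 10 pmol RNA in EPPS pH 7.5 was reacted with 50 pmoles of a 30-nt RNA substrate for 1 h at 37 °C across several added MgCl2 levels (1–48 mM), then stopped with EDTA. Products were reverse transcribed from a substrate-complementary primer, PCR-amplified and sequenced (HiSeq 4000). Fitness is a variant's read proportion after selection over that before, normalised to wild type.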

Variant	reverse-splicing fitness
C82A A111C A120U A145U C150A C169U U176C	0.00301
C82A A111C A120U A145U C150A C169U U176G	0.00282
C82A A111C A120G A145G U176A	0.0153
C82A A111C A120G A145G U176G	0.00581
C82A A111C A120G A145G U176C	0.0226
C82A A111C A120G A145U C169A U176C	0.0104
C82A A111C A120G A145U C169A U176G	0.00466
C82A A111C A120G A145U C169A U176A	0.00852
C82A A111C A120U A145G C150A C169G U176C	0.00514
C82A A111C A120U A145G C150A C169G U176G	0.00261
C82A A111C A120U A145G C150A C169G U176A	0.00687
C82A A111C A120U A145G U176G	0.0035
C82A A111C A120U A145G U176C	0.0109
C82A A111C A120U A145G U176A	0.00698
C82A A111C A120G A145U C150U C169U U176G	0.00648
C82A A111C A120G A145U C150U C169U U176A	0.0153
C82A A111C A120G A145U C150U C169U U176C	0.012
C82A A111C A120G A145G C150U	0.0128
C82A A111C A120G A145G C150G	0.00731
C82A A111C A120G C150U C169G U176G	0.00594
C82A A111C A120G C150U C169G U176C	0.0169

Variant	reverse-splicing fitness
C82A A111C A120G C150U C169G U176A	0.0134
C82A A111C A120G C169G U176G	0.00494
C82A A111C A120G C169G U176C	0.0214
C82A A111C A120G C169G U176A	0.0165
C82A A111C A120U A145C C169U U176G	0.00232
C82A A111C A120U A145C C169U U176C	0.00326
C82A A111C A120U A145C C169U U176A	0.00272
C82A A111C A120G A145G C150G U176A	0.00663
C82A A111C A120G A145G C150G U176G	0.00573
C82A A111C A120G A145G C150G U176C	0.0111
C82A A111C A120U A145U C150G C169G	0.00401
C82A A111C A120U A145U C150G C169A	0.00497
C82A A111C A120G C150A C169A U176G	0.00729
C82A A111C A120G C150A C169A U176A	0.0182
C82A A111C A120G C150A C169A U176C	0.0168
C82A A111C A120G A145U C169U U176G	0.00449
C82A A111C A120G A145U C169U U176C	0.0118
C82A A111C A120G A145U C169U U176A	0.0132
C82A A111C A120G A145G C169U U176G	0.00473
C82A A111C A120G A145G C169U U176C	0.0157
C82A A111C A120G A145G C169U U176A	0.0159

Variant	reverse-splicing fitness
C82A A111C A120U A145G C150U C169A U176A	0.00915
C82A A111C A120U A145G C150U C169A U176C	0.00432
C82A A111C A120U A145G C150U C169A U176G	0.00324
C82A A111C A120G A145U C150G C169A U176A	0.00941
C82A A111C A120G A145U C150G C169A U176C	0.00969
C82A A111C A120G A145U C150G C169A U176G	0.00558
C82A A111C A120U	0.0221
C82A A111C A120U A145G C150G C169G	0.00663
C82A A111C A120U A145G C150G C169U	0.00759
C82A A111C A120U A145G C150G C169A	0.00782
C82A A111C A120U A145C C150G U176G	0.00265
C82A A111C A120U A145C C150G U176A	0.00333
C82A A111C A120U A145C C150G U176C	0.00415
C82A A111C A120U A145U C150A C169A U176C	0.00334
C82A A111C A120U A145U C150A C169A U176G	0.00272
C82A A111C A120U A145U C150A C169A U176A	0.00258
C82A A111C A120G C150U C169A	0.00973
C82A A111C A120G C150U C169G	0.00891
C82A A111C A120G C150U C169U	0.00806
C82A A111C A120U A145C C169A U176G	0.00214
C82A A111C A120U A145C C169A U176A	0.00272

Variant	reverse-splicing fitness
C82A A111C A120U A145C C169A U176C	0.00295
C82A A111C A120G A145U C150A U176A	0.0139
C82A A111C A120G A145U C150A U176G	0.00589
C82A A111C A120G A145U C150A U176C	0.02
C82A A111C A120U A145G C150A C169A	0.00708
C82A A111C A120U A145G C150A C169G	0.00577
C82A A111C A120U A145G C150A C169U	0.00559
C82A A111C A120U A145C C169G U176A	0.00292
C82A A111C A120U A145C C169G U176G	0.00255
C82A A111C A120U A145C C169G U176C	0.00316
C82A A111C A120G A145U C150U C169U	0.00924
C82A A111C A120G A145U C150U C169A	0.00903
C82A A111C A120G A145U C150U C169G	0.00909
C82A A111C A120G A145U C169G U176G	0.00481
C82A A111C A120G A145U C169G U176C	0.012
C82A A111C A120G A145U C169G U176A	0.0102
C82A A111C A120G A145G C150A U176C	0.0185
C82A A111C A120G A145G C150A U176G	0.00772
C82A A111C A120G A145G C150A U176A	0.00969
C82A A111C A120G C150U U176G	0.00673

Source: the RNAGym collection of RNA variant scans (doi:10.1093/molbev/msab373)
